Assay results published in patent US20150344571A1 (KANGWON NATIONAL UNIVERSITY UNIVERSITY INDUSTRY COOPERATION …, published 2015).
Positions count from the first letter of the chain named. Names may count otherwise. One block for each binder: values may come before it.

Tests used:
[1] = target: T1, mouse L1CAM (purified extracellular domain with S1 tag) (mouse, UniProt P11627 20-1123); test: competitive ELISA with mouse L1CAM
T1 construct: extracellular domain; also called mouse L1CAM monomer; not shown: S1 tag from the pJEX2T vector
T1 sequence (P11627 20-1123): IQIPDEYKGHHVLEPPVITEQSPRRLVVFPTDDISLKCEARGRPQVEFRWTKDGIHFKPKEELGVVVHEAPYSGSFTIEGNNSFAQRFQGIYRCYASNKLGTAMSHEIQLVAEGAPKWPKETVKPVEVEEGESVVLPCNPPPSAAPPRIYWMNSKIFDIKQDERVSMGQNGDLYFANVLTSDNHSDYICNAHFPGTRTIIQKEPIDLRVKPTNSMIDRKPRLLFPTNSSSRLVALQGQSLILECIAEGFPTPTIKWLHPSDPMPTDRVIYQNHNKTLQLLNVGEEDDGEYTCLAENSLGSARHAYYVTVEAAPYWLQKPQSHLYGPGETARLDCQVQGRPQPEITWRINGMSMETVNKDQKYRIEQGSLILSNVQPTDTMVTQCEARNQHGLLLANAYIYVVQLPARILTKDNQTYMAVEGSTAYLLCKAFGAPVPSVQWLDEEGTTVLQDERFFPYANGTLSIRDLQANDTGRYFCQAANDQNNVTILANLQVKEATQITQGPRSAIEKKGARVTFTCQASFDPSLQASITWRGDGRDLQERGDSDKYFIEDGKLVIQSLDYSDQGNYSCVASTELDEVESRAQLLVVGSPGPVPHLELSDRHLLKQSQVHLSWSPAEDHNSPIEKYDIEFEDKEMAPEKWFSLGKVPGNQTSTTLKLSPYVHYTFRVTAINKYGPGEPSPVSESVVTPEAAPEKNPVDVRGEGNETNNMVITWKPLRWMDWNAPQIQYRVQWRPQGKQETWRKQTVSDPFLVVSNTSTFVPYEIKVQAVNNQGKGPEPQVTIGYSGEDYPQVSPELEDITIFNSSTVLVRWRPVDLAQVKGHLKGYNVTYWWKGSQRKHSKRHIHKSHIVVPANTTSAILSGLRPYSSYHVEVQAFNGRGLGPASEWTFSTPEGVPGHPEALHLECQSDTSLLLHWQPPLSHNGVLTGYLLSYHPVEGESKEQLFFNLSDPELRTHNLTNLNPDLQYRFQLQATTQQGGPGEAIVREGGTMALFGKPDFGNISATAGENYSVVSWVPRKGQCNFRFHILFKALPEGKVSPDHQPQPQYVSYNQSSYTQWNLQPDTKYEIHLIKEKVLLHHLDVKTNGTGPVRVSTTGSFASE

[2] = target: T2, human L1CAM (purified extracellular domain) (human, UniProt P32004 20-1112); test: competitive ELISA (soluble human L1CAM against coated human L1CAM)
T2 construct: range 1-1112; Expressed in HEK293T from pJK-dhfr2-L1-monomer; The stated range 1-1112 begins at residue 1 of the precursor; no signal peptide limits are stated; also called human L1CAM antigen
T2 sequence (P32004 20-1112 limits assumed, form in doubt): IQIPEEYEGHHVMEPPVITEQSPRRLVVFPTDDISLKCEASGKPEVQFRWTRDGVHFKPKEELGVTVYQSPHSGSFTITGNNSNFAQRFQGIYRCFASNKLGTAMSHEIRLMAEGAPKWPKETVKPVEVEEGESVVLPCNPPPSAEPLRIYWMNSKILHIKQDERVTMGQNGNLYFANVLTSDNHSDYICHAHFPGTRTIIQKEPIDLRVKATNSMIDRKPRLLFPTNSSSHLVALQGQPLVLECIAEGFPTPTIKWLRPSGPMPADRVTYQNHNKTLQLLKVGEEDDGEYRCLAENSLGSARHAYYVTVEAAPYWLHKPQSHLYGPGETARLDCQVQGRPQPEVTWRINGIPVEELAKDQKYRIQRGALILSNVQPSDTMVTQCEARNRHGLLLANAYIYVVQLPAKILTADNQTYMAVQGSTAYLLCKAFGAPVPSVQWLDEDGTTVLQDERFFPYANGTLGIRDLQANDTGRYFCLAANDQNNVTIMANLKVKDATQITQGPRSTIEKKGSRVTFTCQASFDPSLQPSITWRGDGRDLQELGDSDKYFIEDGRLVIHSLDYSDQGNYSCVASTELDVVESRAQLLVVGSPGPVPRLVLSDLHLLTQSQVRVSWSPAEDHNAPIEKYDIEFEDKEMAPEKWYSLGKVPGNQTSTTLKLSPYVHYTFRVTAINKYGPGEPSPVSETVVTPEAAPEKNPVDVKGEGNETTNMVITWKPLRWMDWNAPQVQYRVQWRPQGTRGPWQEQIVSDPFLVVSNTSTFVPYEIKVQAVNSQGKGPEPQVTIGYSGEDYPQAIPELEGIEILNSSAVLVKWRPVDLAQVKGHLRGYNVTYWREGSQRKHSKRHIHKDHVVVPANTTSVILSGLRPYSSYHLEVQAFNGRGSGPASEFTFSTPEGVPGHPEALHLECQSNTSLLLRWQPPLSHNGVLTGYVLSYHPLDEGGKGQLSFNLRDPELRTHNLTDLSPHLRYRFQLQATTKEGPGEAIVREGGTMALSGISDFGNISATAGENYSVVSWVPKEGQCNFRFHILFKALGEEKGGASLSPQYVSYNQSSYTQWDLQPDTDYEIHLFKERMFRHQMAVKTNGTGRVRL
Procedure: (§1) The affinities of the purified antibodies for human L1CAM were measured by competitive ELISA. Human L1CAM was prepared at a density of 1×10⁻⁶ M and serially diluted to 1×10⁻¹¹ M using a PBS buffer solution. Respective antibodies were prepared by diluting them in PBS buffer solution at particular concentrations according to their binding capacity. The antigens and antibodies thus diluted were reacted with each other at the same volume ratio, and allowed to react at room temperature for 2 hours.
(§2) 96-well plates (MaxiSorp, Nunc) were coated using the purified human L1CAM which were diluted in a buffer solution (15 mM Na₂CO₃, 34.84 mM NaHCO₃, pH 9.6) at a concentration of 100 ng/well, at 4° C. overnight. Next day, the wells were washed with 0.05% PBS-T buffer solution twice. Difco skim milk (BD) was dissolved in 0.05% PBS-T buffer solution at a concentration of 2%, and 200 μl thereof was added to each well, followed by incubation at room temperature for 1 hour. Then, the wells were washed with 0.05% PBS-T buffer solution twice. To the plate, 100 it of the antigen/antibody reactant that were reacted for 2 hours was added and allowed to react at room temperature for 1 hour. Then, the wells were washed with 0.05% PBS-T buffer solution three times to remove non-antigen bound antibodies. Goat anti-human IgG(Fc)-HRP (Pierce, 1/5000) that specifically recognizes the Fc region of human antibody was added as a secondary antibody, and allowed to react at room temperature for 1 hour. Then, the wells were washed with 0.05% PBS-T buffer solution four times to remove the remaining secondary antibodies. […] Then, 50 μl of 2.5 M H₂SO₄ solution was added to each well to terminate the enzymatic reaction. After terminating the reaction, absorbance was measured at 450 nm (VERSAmax microplate reader, Molecular Devices).

[3] = target: T2, human L1CAM (purified extracellular …); test: Octet RED (called SPR in the filing), antibody on AHC sensor, soluble human L1CAM
Procedure: (§3) In addition to the competitive ELISA, SPR (surface […] resonance) was measured using Octet RED (ForteBio, USA) according to the manufacturer's protocol to determine the affinities of Ab417 antibody and Ab4M antibody for human and mouse L1CAM. […] AHC (anti-human IgG Fc capture) sensor chip was used to analyze binding kinetics of the antibodies to antigens by examining changes in refractive index which occurs upon association and dissociation of antibody and antigen while transferring the sensor chip to PBS solution, antibody, PBS solution, antigen, and PBS solution in this order.

[4] = target: T1, mouse L1CAM (purified extracellular …); test: Octet RED (called SPR in the filing), antibody on AHC sensor, soluble mouse L1CAM
Procedure: as §3

[5] = target: T2, human L1CAM (purified extracellular …); test: competitive ELISA
Procedure: as §1, §2
Affinity of the purified Ab417 antibody for human L1CAM was measured by competitive ELISA in the same manner as in Example 3-2.

[6] = target: T1, mouse L1CAM (purified extracellular …); test: Octet RED, antibody on AHC sensor, soluble mouse L1CAM
Procedure: (§4) Affinities of Ab417, Ab417-H6L2 mutant, and Ab417-H6L6 mutant for human and mouse L1CAM were examined using Octet RED (fortebio). […] Each 200 it thereof was added to opaque 96-well plate to prevent light transmission. AHC (anti-human IgG Fc capture) sensor chip was used to analyze binding kinetics of the antibodies to antigens by examining changes in refractive index which occurs upon association and dissociation of antibody and antigen while transferring the sensor chip to PBS solution, antibody, PBS solution, antigen, and PBS solution in this order.
(§5) Despite amino acid substitution, there were no changes in the affinities of these antibodies (Table 4), and there were also no changes in the affinities of these antibodies for mouse L1CAM (Table 5).

[7] = target: T2, human L1CAM (purified extracellular …); test: Octet RED, antibody on AHC sensor, soluble human L1CAM
Procedure: as §4, §5

[8] = target: T2, human L1CAM (purified extracellular …); test: Octet RED
Procedure: as §3

[9] = target: T2, human L1CAM (purified extracellular …); test: not stated there (summary of the filing's affinity measurements); rounded summary value, no assay named
[10] = target: T1, mouse L1CAM (purified extracellular …); test: not stated there (summary of the filing's affinity measurements)
[11] = target: T1, mouse L1CAM (purified extracellular …); test: indirect ELISA on coated mouse L1CAM, mutant IgG in culture supernatant, relative to Ab4
Description: The expression vectors of respective mutants were obtained in a large amount, and transfected to human embryonic kidney HEK293T cells using Lipofectamine 2000 (invitrogen), followed by culture. The transfected cells produce and secrete whole antibodies out of the cells, and the culture supernatants were collected and subjected to indirect ELISA as follows. 96-well plates (MaxiSorp, Nunc) were coated using the purified extracellular domain of human L1CAM (hereinafter, referred to as ‘human L1CAM’) and the extracellular domain of purified mouse L1CAM (hereinafter, referred to as ‘mouse L1CAM’) as antigens, which were diluted in a buffer solution (15 mM Na₂CO₃, 34.84 mM NaHCO₃, pH 9.6) at a concentration of 100 ng/well, at 4° C. overnight. Next day, the plate was washed with 0.05% PBS-T buffer solution twice. Difco skim milk (BD) was dissolved in 0.05% PBS-T buffer solution at a concentration of 2%, and 200 μl thereof was added to each well, followed by incubation at 37° C. for 1 hour. Then, the wells were washed with 0.05% PBS-T buffer solution twice. To the plate, 100 μl of the supernatant was added and allowed to react at 37° C. for 1 hour. Then, the wells were washed with 0.05% PBS-T buffer solution three times to remove non-antigen bound antibodies. Goat anti-human IgG(Fc)-HRP (Pierce, 1/5000) that specifically recognizes the Fc region of human antibody was added as a secondary antibody, and allowed to react at 37° C. for 1 hour. Then, the wells were washed with 0.05% PBS-T buffer solution four times to remove the remaining secondary antibodies.
Then, 50 μl of 2.5 M H₂SO₄ solution was added to each well to terminate the enzymatic reaction. After terminating the reaction, absorbance was measured at 450 nm (VERSAmax microplate reader, Molecular Devices).

B1: Ab4M antibody (antibody, IgG1, V domains shown)
VH: EVQLVESGGGVVQPGRSLRLSCAASGFTFSRFGMHWVRQAPGKGLEWVAFISNDGSNKYYADSVKGRFTISRDNSKNTLYLQMNSLRPEDTAVYYCARGRAYGSGSLFDPWGQGTLVTVSS
VL: DIQLTQSPSSLSASVGDRVTITCRASRTISIYVNWYRQRPGKAPESLIYAASNLHSGVPSRFSGSGSGTDFTLTISSLQPEDFATYYCQQTHATRQYTFGQGTKLEIK
notes: Ab4 with V50F and H97A in VH and V75I, G84A and D93A in VK; Whole IgG (IgG1 vector pdCMV-dhfrC-Ab4M)
Kd [1]: 0.22 nM | fold higher affinity than Ab4 [1]: ~8 fold | Kd [2]: 2.9 nM | Kd [3]: 0.33 nM | koff [3]: 4.3e-05 s⁻¹ | kon [3]: 130000 M⁻¹ s⁻¹ | Kd [4]: 0.0893 nM | koff [4]: 2.22e-05 s⁻¹ | kon [4]: 249000 M⁻¹ s⁻¹ | fold higher affinity than Ab4 [5]: ~45 fold

B4: V50F/H97A mutant of Ab4 antibody (antibody, name in Kabat numbering, V domains shown)
VH: B1 VH
VL: B1 VL with I75V, A84G, A93D
notes: also called VH V50F/H97A mutant
Kd [2]: 18 nM

B5: D93A mutant of Ab4 antibody (antibody, IgG1, V domains shown)
VH: B1 VH with F50V, A101H
VL: B1 VL with I75V, A84G
notes: Whole IgG made in the pdCMV-dhfrC-Ab4 vector (IgG1); also called VK D93A mutant
Kd [2]: 30 nM

B6: Ab417 antibody (antibody, V domains shown)
VH: B1 VH
VL: B1 VL with T91S, H92I, A93G, T94R, R95G, Q96V, Y97V
notes: Whole IgG expressed from pdCMV-dhfrC-Ab417; also called IgG form of Ab4M-18 (codon-optimised)
Kd [1]: 0.21 nM | fold higher affinity than Ab4 [1]: ~8 fold | fold higher affinity than Ab4M [8]: ~2 fold | Kd [9]: 0.2 nM | Kd [6]: 0.108 nM | koff [6]: 2.64e-05 s⁻¹ | kon [6]: 244000 M⁻¹ s⁻¹ | Kd [2]: 1.2 nM | Kd [7]: 0.239 nM | koff [7]: 4.51e-05 s⁻¹ | kon [7]: 189000 M⁻¹ s⁻¹ | Kd [3]: 0.18 nM | koff [3]: 2.33e-05 s⁻¹ | kon [3]: 127000 M⁻¹ s⁻¹ | Kd [10]: 0.1 nM | Kd [4]: 0.0348 nM | koff [4]: 8.1e-06 s⁻¹ | kon [4]: 233000 M⁻¹ s⁻¹ | fold higher affinity than Ab4 [5]: ~92 fold | fold higher affinity than Ab4M [5]: ~2.4 fold

B7: H97A mutant of Ab4 antibody (antibody, IgG1, name in Kabat numbering, V domains shown)
VH: B1 VH with F50V
VL: B1 VL with I75V, A84G, A93D
notes: Whole IgG made in the pdCMV-dhfrC-Ab4 vector (IgG1); also called VH H97A mutant of Ab4
Kd [2]: 29 nM

Next, values leading:

Kd [6]: 0.131 nM | koff [6]: 2.67e-05 s⁻¹ | kon [6]: 204000 M⁻¹ s⁻¹ | Kd [7]: 0.22 nM | koff [7]: 3.22e-05 s⁻¹ | kon [7]: 146000 M⁻¹ s⁻¹
B2: Ab417-H6L2 antibody (antibody, V domains shown)
VH: B1 VH with R16G, D54E, K76A, P88A
VL: B1 VL with I31S, T91S, H92I, A93G, T94R, R95G, Q96V, Y97V
notes: H6 is the Ab417 VH with R16G, D54E, K76A and P88A; L2 is the Ab417 VK with I31S; also called Ab417-H6L2 mutant; H6L2 mutant

Kd [6]: 0.0984 nM | koff [6]: 2.11e-05 s⁻¹ | kon [6]: 214000 M⁻¹ s⁻¹ | Kd [7]: 0.246 nM | koff [7]: 3.64e-05 s⁻¹ | kon [7]: 148000 M⁻¹ s⁻¹
B3: Ab417-H6L6 antibody (antibody, V domains shown)
VH: B1 VH with R16G, D54E, K76A, P88A
VL: DIQLTQSPSSLSASVGDRVTITCRASRTISSYVNWYQQKPGQAPESLIYAASNLHSGVPSRFSGSGSGTDFTLTISSLQPEDFATYYCQQSIGRGVVTFGQGTKLEIK
notes: L6 is the Ab417 VK with I31S, R37Q, R39K and K42Q; also called Ab417-H6L6 mutant; H6L6 mutant

binding result [11]: no binding
B8: Y98A (antibody, V domains shown)
VH: B1 VH with F50V, A101H, Y102A
VL: B1 VL with I75V, A84G, A93D
notes: whole IgG; also called Ab4 VH Y98A (HCDR3 alanine mutant); copies: 2 + 2

binding result [11]: no binding
B9: R96A (antibody, V domains shown)
VH: B1 VH with F50V, R100A, A101H
VL: B1 VL with I75V, A84G, A93D
notes: whole IgG; also called Ab4 VH R96A (HCDR3 alanine mutant); copies: 2 + 2

binding result [11]: no binding
B10: G99A (antibody, V domains shown)
VH: B1 VH with F50V, A101H, G103A
VL: B1 VL with I75V, A84G, A93D
notes: whole IgG; also called Ab4 VH G99A (HCDR3 alanine mutant); copies: 2 + 2
